Experiments:
[1] = biological target: T1, bifunctional CD80-anti-17-1A scFv construct, clone 5-3 (human, UniProt P33681 35-242); assay: flow cytometry on 17-1A-transfected CHO cells, undiluted supernatant, anti-CD80 detection
T1 construct: extracellular domain; CHO culture supernatant; also called pEFDHFR+CTI+CD80+scFv anti 17-1A 5-3; CD80-scFv-construct 5-3
Method: (§1) FIG. 9.1: Binding studies of 17-1A specific bifunctional CD80-scFv-constructs on 17-1A transfected (filled lines) and untransfected CHO cells (broken lines) detected by flow cytometry. 5 ×10^5 cells were incubated in 50 μl undiluted cell-culture supernatant containing the corresponding bifunctional construct. Bound bifunctional CD80-scFv-constructs were detected by a monoclonal anti-CD80 antibody (Immunotech. Cat. No.: 1449) diluted 1:20 in 50 μl PBS. Incubation conditions were the same as described in FIG. 8.5. Bound CD80-antibody was finally detected by a fluorescein conjugated polyclonal Goat Anti-Mouse IgG+IgM (H+L) antibody diluted 1:100 in PBS. Incubation was again carried out for 30 minutes on ice. For the fixation of fluorescein-labeled cells 1% paraformaldehyd in PBS was used. As first negative control untransfected CHO was used. The second negative control contained 17-1A-transfected cells that were incubated with PBS instead of bifunctional CD80-scFv-constructs. Cells were analysed by flow cytometry on a FACS scan (Becton Dickenson).
(§2) For this purpose adherent untransfected and 17-1A-transfected CHO-cells were detached using PBS containing 0,05% Trypsine, respectively. 5 ×10^5 cells were incubated for 30 minutes on ice in 50 µl culture supernatant containing the corresponding bifunctional construct undiluted (FIG. 9.1). Bound bifunctional CD80-scFv-constructs were detected by a monoclonal anti-CD80 antibody (Immunotech. Cat. No: 1449) diluted 1:20 in 50 µl PBS. Incubation conditions were the same as above. Bound CD80-antibody was finally detected by a fluorescein conjugated polyclonal Goat Anti-Mouse IgG+IgM (H+L) antibody diluted 1:100 in PBS. Incubation was again carried out for 30 minutes on ice. For the fixation of fluorescein-labeled cells 1% paraformaldehyd in PBS was used.

[2] = biological target: T2, bifunctional CD80-anti-17-1A scFv construct, clone 4-1 (human, UniProt P33681 35-242); assay: as above
T2 construct: extracellular domain; CHO culture supernatant; also called pEF-DHFR+CTI+CD80+scFv 17-1A clone 4-1; CD80-scFv-construct 4-1
Method: as §1, §2

[3] = biological target: T3, bifunctional CD80-anti-17-1A scFv construct, clone 4-7 (human, UniProt P33681 35-242); assay: as above
T3 construct: extracellular domain; CHO culture supernatant; also called pEFDHFR+CTI+CD80+scFv anti 17-1A 4-7; CD80-scFv-construct 4-7
Method: as §1, §2

[4] = biological target: T4, bifunctional CD80-anti-17-1A scFv construct, clone 5-13 (human, UniProt P33681 35-242); assay: as above
T4 construct: extracellular domain; CHO culture supernatant; also called pEF-DHFR+CTI+CD80+scFv 17-1A clone 5-13; CD80-scFv-construct 5-13
Method: as §1, §2

[5] = biological target: T5, bifunctional CD80-anti-17-1A scFv construct, clone 5-10 (human, UniProt P33681 35-242); assay: as above
T5 construct: extracellular domain; CHO culture supernatant; also called pEHDFR+CTI+CD80+scFv anti 17-1A 5-10; CD80-scFv-construct 5-10
Method: as §1, §2

[6] = biological target: T6, bifunctional CD80-anti-17-1A scFv construct, clone 3-1 (human, UniProt P33681 35-242); assay: as above
T6 construct: extracellular domain; CHO culture supernatant; also called pEF-DHFR+CTI+CD80+scFv 17-1A clone 3-1; CD80-scFv-construct 3-1
Method: as §1, §2

[7] = biological target: T7, bifunctional CD80-anti-17-1A scFv construct, clone 4-4 (human, UniProt P33681 35-242); assay: as above
T7 construct: extracellular domain; CHO culture supernatant; also called pEF-DHFR+CTI+CD80+scFv 17-1A clone 4-4; CD80-scFv-construct 4-4
Method: as §1, §2

[8] = biological target: T8, bifunctional CD80-anti-17-1A scFv construct, clone 3-5 (human, UniProt P33681 35-242); assay: as above
T8 construct: extracellular domain; CHO culture supernatant; also called pEF-DHFR+CTI+CD80+scFv 17-1A clone 3-5; CD80-scFv-construct 3-5
Method: as §1, §2

[9] = biological target: T9, CD80-VD4.5VK8 scFv(VH/VL) construct with short (Gly4Ser1)1 linker (human, UniProt P33681 35-242); assay: flow cytometry on 17-1A-transfected CHO cells, anti-CD80 detection
T9 construct: extracellular domain; Tested as CHO culture supernatant; also called bifunctional CD80-VD4.5VK8-scFv-construct; pEF-DHFR+CTI+CD80+scFv VD4.5VK8
Method: as §1, with “The second negative control contained 17-1A-transfected cells that were incubated with PBS instead of bifunctional CD80-scFv-constructs.” left out
For this purpose adherent untransfected and 17-1A-transfected CHO-cells were detached using PBS containing 0,05% Trypsine, respectively. […] Bound bifunctional CD80-scFv-constructs were detected by a monoclonal anti-CD80 antibody (Immunotech. Cat. No: 1449) diluted 1:20 in 50 µl PBS. […] Bound CD80-antibody was finally detected by a fluorescein conjugated polyclonal Goat Anti-Mouse IgG+IgM (H+L) antibody diluted 1:100 in PBS. […]

binding result [1]: binds | binding result [2]: binds | binding result [3]: binds | binding result [4]: binds | binding result [5]: binds | binding result [6]: binds | binding result [7]: binds | binding result [8]: binds
B1: transmembrane 17-1A antigen (complete amino acid sequence, GA733-2) on transfected CHO cells (other, UniProt P16422 24-314, looked up)
chain: QEECVCENYKLAVNCFVNNNRQCQCTSVGAQNTVICSKLAAKCLVMKAEMNGSKLGRRAKPEGALQNNDGLYDPDCDESGLFKAKQCNGTSMCWCVNTAGVRRTDKDTEITCSERVRTYWIIIELKHKAREKPYDSKSLRTALQKEITTRYQLDPKFITSILYENNVITIDLVQNSSQKTQNDVDIADVAYYFEKDVKGESLFHSKKMDLTVNGEQLDLDPGQTLIYYVDEKAPEFSMQGLKAGVIAVIVVVVIAVVAGIVVLVISRKKRMAKYEKAEIKEMGEMHRELNA
notes: whole, on cells; also called 17-1A-transfected CHO-cells
binding result [9]: no binding (tested: undiluted culture supernatant)

From patent US7435549 (MICROMET, dated 2008)
